Source: US20220363757A1

How the values were obtained:
[1] = molecular target: cynomolgus LAG-3 ECD human IgG1 Fc fusion (cynomolgus; human) (UniProt P18627); assay: SPR, Fab over captured LAG-3 ECD-Fc
[2] = molecular target: human LAG-3 ECD human IgG1 Fc fusion (human) (UniProt P18627); assay: SPR, Fab over captured LAG-3 ECD-Fc
[3] = molecular target: human LAG-3 domain 1-2 Fc fusion, chimeric construct #1 (mutated region AA 23-30) (human) (UniProt P18627); assay: SPR, Fab over captured mutant LAG-3-Fc
[4] = molecular target: human LAG-3 domain 1-2 Fc fusion, chimeric construct #18 (mutated region AA 114-119) (human) (UniProt P18627); assay: SPR, Fab over captured mutant LAG-3-Fc
[5] = molecular target: human LAG-3 domain 1-2 Fc fusion, chimeric construct #19 (mutated region AA 118-127) (human) (UniProt P18627); assay: SPR, Fab over captured mutant LAG-3-Fc
[6] = molecular target: human LAG-3 domain 1-2 Fc fusion, chimeric construct #21 (mutated region AA 128-137) (human) (UniProt P18627); assay: SPR, Fab over captured mutant LAG-3-Fc
Sequence of human LAG-3 domain 1-2 Fc fusion, chimeric construct #21 (mutated region AA 128-137) (human) (P18627 23-266, change not shown): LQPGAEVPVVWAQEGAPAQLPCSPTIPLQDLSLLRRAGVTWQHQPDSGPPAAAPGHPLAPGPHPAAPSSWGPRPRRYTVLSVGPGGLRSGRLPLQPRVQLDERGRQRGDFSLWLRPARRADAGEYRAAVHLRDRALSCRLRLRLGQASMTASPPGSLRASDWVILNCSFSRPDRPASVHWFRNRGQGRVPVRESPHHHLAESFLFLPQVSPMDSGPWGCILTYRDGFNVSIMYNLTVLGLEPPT

[7] = molecular target: human LAG-3 domain 1-2 Fc fusion, chimeric construct #27 (mutated region AA 161-166) (human) (UniProt P18627); assay: SPR, Fab over captured mutant LAG-3-Fc
[8] = molecular target: human LAG-3 domain 1-2 Fc fusion, chimeric construct #7 (mutated region AA 53-60) (human) (UniProt P18627); assay: SPR, Fab over captured mutant LAG-3-Fc
[9] = molecular target: human LAG-3 domain 1-2 Fc fusion, chimeric construct #8 (mutated region AA 59-66) (human) (UniProt P18627); assay: SPR, Fab over captured mutant LAG-3-Fc
Sequence of human LAG-3 domain 1-2 Fc fusion, chimeric construct #8 (mutated region AA 59-66) (human) (P18627 other isoform, or with tags, fused parts or gaps mutant): as the sequence (P18627 23-266, change not shown) above, with A37G, G38W, Q44R counted along it

[10] = molecular target: human LAG-3 domain 1-2 Fc fusion, point mutation #10 S54A (human) (UniProt P18627); assay: SPR, Fab over captured mutant LAG-3-Fc
Sequence of human LAG-3 domain 1-2 Fc fusion, point mutation #10 S54A (human) (P18627 23-266 S54A): as the sequence (P18627 23-266, change not shown) above, with S32A counted along it

[11] = molecular target: human LAG-3 domain 1-2 Fc fusion, point mutation #11 L56A (human) (UniProt P18627); assay: SPR, Fab over captured mutant LAG-3-Fc
Sequence of human LAG-3 domain 1-2 Fc fusion, point mutation #11 L56A (human) (P18627 23-266 L56A): as the sequence (P18627 23-266, change not shown) above, with L34A counted along it

[12] = molecular target: human LAG-3 domain 1-2 Fc fusion, point mutation #12 R57A (human) (UniProt P18627); assay: SPR, Fab over captured mutant LAG-3-Fc
[13] = molecular target: human LAG-3 domain 1-2 Fc fusion, point mutation #13 R58A (human) (UniProt P18627); assay: SPR, Fab over captured mutant LAG-3-Fc
[14] = molecular target: human LAG-3 domain 1-2 Fc fusion, point mutation #20 A73S (human) (UniProt P18627); assay: SPR, Fab over captured mutant LAG-3-Fc
[15] = molecular target: human LAG-3 domain 1-2 Fc fusion, point mutation #23 P76A (human) (UniProt P18627); assay: SPR, Fab over captured mutant LAG-3-Fc
Sequence of human LAG-3 domain 1-2 Fc fusion, point mutation #23 P76A (human) (P18627 23-266 P76A): as the sequence (P18627 23-266, change not shown) above, with P54A counted along it

[16] = molecular target: human LAG-3 domain 1-2 Fc fusion, point mutation #24 G77A (human) (UniProt P18627); assay: SPR, Fab over captured mutant LAG-3-Fc
[17] = molecular target: human LAG-3 domain 1-2 Fc fusion, point mutation #26 P79A (human) (UniProt P18627); assay: SPR, Fab over captured mutant LAG-3-Fc
Sequence of human LAG-3 domain 1-2 Fc fusion, point mutation #26 P79A (human) (P18627 23-266 P79A): as the sequence (P18627 23-266, change not shown) above, with P57A counted along it

[18] = molecular target: human LAG-3 domain 1-2 Fc fusion, point mutation #27 L80A (human) (UniProt P18627); assay: SPR, Fab over captured mutant LAG-3-Fc
[19] = molecular target: human LAG-3 domain 1-2 Fc fusion, point mutation #29 P82A (human) (UniProt P18627); assay: SPR, Fab over captured mutant LAG-3-Fc
[20] = molecular target: human LAG-3 domain 1-2 Fc fusion, point mutation #3 P43A (human) (UniProt P18627); assay: SPR, Fab over captured mutant LAG-3-Fc
Sequence of human LAG-3 domain 1-2 Fc fusion, point mutation #3 P43A (human) (P18627 23-266 P43A): as the sequence (P18627 23-266, change not shown) above, with P21A counted along it

[21] = molecular target: human LAG-3 domain 1-2 Fc fusion, point mutation #33 P86A (human) (UniProt P18627); assay: SPR, Fab over captured mutant LAG-3-Fc
[22] = molecular target: human LAG-3 domain 1-2 Fc fusion, point mutation #38 S91A (human) (UniProt P18627); assay: SPR, Fab over captured mutant LAG-3-Fc
Sequence of human LAG-3 domain 1-2 Fc fusion, point mutation #38 S91A (human) (P18627 23-266 S91A): as the sequence (P18627 23-266, change not shown) above, with S69A counted along it

[23] = molecular target: human LAG-3 domain 1-2 Fc fusion, point mutation #43 P96A (human) (UniProt P18627); assay: SPR, Fab over captured mutant LAG-3-Fc
Sequence of human LAG-3 domain 1-2 Fc fusion, point mutation #43 P96A (human) (P18627 23-266 P96A): as the sequence (P18627 23-266, change not shown) above, with P74A counted along it

[24] = molecular target: human LAG-3 domain 1-2 Fc fusion, point mutation #46 Y99A (human) (UniProt P18627); assay: SPR, Fab over captured mutant LAG-3-Fc
Sequence of human LAG-3 domain 1-2 Fc fusion, point mutation #46 Y99A (human) (P18627 23-266 Y99A): as the sequence (P18627 23-266, change not shown) above, with Y77A counted along it

[25] = molecular target: human LAG-3 domain 1-2 Fc fusion, point mutation #47 T100A (human) (UniProt P18627); assay: SPR, Fab over captured mutant LAG-3-Fc
Sequence of human LAG-3 domain 1-2 Fc fusion, point mutation #47 T100A (human) (P18627 23-266 T100A): as the sequence (P18627 23-266, change not shown) above, with T78A counted along it

[26] = molecular target: human LAG-3 domain 1-2 Fc fusion, point mutation #52 G108A (human) (UniProt P18627); assay: SPR, Fab over captured mutant LAG-3-Fc
Sequence of human LAG-3 domain 1-2 Fc fusion, point mutation #52 G108A (human) (P18627 23-266 G108A): as the sequence (P18627 23-266, change not shown) above, with G86A counted along it

[27] = molecular target: human LAG-3 domain 1-2 Fc fusion, point mutation #55 S111A (human) (UniProt P18627); assay: SPR, Fab over captured mutant LAG-3-Fc
[28] = molecular target: human LAG-3 domain 1-2 Fc fusion, point mutation #56 G112A (human) (UniProt P18627); assay: SPR, Fab over captured mutant LAG-3-Fc
[29] = molecular target: human LAG-3 domain 1-2 Fc fusion, point mutation #62 Q121A (human) (UniProt P18627); assay: SPR, Fab over captured mutant LAG-3-Fc
Sequence of human LAG-3 domain 1-2 Fc fusion, point mutation #62 Q121A (human) (P18627 23-266 Q121A): as the sequence (P18627 23-266, change not shown) above, with Q99A counted along it

[30] = molecular target: human LAG-3 domain 1-2 Fc fusion, point mutation #65 R125A (human) (UniProt P18627); assay: SPR, Fab over captured mutant LAG-3-Fc
Sequence of human LAG-3 domain 1-2 Fc fusion, point mutation #65 R125A (human) (P18627 23-266 R125A): as the sequence (P18627 23-266, change not shown) above, with R103A counted along it

[31] = molecular target: human LAG-3 domain 1-2 Fc fusion, point mutation #72 S133A (human) (UniProt P18627); assay: SPR, Fab over captured mutant LAG-3-Fc
Sequence of human LAG-3 domain 1-2 Fc fusion, point mutation #72 S133A (human) (P18627 23-266 S133A): as the sequence (P18627 23-266, change not shown) above, with S111A counted along it

[32] = molecular target: human LAG-3 domain 1-2 Fc fusion, point mutation #79 S159A (human) (UniProt P18627); assay: SPR, Fab over captured mutant LAG-3-Fc
Sequence of human LAG-3 domain 1-2 Fc fusion, point mutation #79 S159A (human) (P18627 23-266 S159A): as the sequence (P18627 23-266, change not shown) above, with S137A counted along it

[33] = molecular target: human LAG-3 domain 1-2 Fc fusion, point mutation #80 R163A (human) (UniProt P18627); assay: SPR, Fab over captured mutant LAG-3-Fc

Sequence of human LAG-3 ECD human IgG1 Fc fusion (human) (P18627 23-450): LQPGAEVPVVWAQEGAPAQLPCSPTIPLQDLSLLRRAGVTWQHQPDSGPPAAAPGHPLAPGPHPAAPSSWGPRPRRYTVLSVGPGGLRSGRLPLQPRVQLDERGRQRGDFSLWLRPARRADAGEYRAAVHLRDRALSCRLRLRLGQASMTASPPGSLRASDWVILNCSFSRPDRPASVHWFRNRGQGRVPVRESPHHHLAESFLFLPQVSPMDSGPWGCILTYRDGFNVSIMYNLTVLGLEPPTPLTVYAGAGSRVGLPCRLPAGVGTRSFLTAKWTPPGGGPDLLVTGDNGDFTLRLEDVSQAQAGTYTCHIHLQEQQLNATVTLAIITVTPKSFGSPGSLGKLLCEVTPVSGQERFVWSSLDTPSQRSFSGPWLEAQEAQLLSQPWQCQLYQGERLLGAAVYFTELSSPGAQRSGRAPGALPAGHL
Sequence of cynomolgus LAG-3 ECD human IgG1 Fc fusion (cynomolgus; human) (P18627 other isoform, or with tags, fused parts or gaps, form in doubt): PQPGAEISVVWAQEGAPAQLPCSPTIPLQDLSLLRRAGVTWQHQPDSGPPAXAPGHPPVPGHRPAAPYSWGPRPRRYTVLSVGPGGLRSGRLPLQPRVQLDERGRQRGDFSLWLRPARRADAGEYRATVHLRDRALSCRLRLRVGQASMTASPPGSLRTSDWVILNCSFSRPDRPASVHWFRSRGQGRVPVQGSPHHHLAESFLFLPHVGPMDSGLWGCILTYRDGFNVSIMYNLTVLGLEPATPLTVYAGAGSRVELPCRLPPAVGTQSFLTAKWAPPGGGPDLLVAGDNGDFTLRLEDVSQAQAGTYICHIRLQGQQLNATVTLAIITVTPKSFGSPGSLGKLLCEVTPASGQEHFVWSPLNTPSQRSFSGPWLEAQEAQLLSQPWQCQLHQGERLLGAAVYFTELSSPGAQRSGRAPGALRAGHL

Substance: Fab fragment of 25F7-Lag3.5 analogue
- Kd [1]: 910 nM
- koff [1]: 0.0038 s⁻¹
- kon [1]: 4200 M⁻¹ s⁻¹
- Kd [2]: 8.5 nM
- koff [2]: 0.0012 s⁻¹
- kon [2]: 140000 M⁻¹ s⁻¹
- KD mutant/KD wild type [3]: 1.3 fold
- KD mutant/KD wild type [4]: 0.8 fold
- KD mutant/KD wild type [5]: 0.8 fold
- KD mutant/KD wild type [6]: 1.4 fold
- KD mutant/KD wild type [7]: 0.8 fold
- KD mutant/KD wild type [8]: 1.4 fold
- KD mutant/KD wild type [9]: 1.3 fold
- KD mutant/KD wild type [10]: 0.8 fold
- KD mutant/KD wild type [11]: 0.9 fold
- KD mutant/KD wild type [12]: 0.7 fold
- KD mutant/KD wild type [13]: 0.8 fold
- KD mutant/KD wild type [14]: 0.8 fold
- KD mutant/KD wild type [15]: 0.9 fold
- KD mutant/KD wild type [16]: 1 fold
- KD mutant/KD wild type [17]: 0.8 fold
- KD mutant/KD wild type [18]: 0.7 fold
- KD mutant/KD wild type [19]: 0.9 fold
- KD mutant/KD wild type [20]: 1.2 fold
- KD mutant/KD wild type [21]: 2.7 fold
- KD mutant/KD wild type [22]: 2.2 fold
- KD mutant/KD wild type [23]: 0.7 fold
- KD mutant/KD wild type [24]: 1 fold
- KD mutant/KD wild type [25]: 1.2 fold
- KD mutant/KD wild type [26]: 0.9 fold
- KD mutant/KD wild type [27]: 0.9 fold
- KD mutant/KD wild type [28]: 0.9 fold
- KD mutant/KD wild type [29]: 0.9 fold
- KD mutant/KD wild type [30]: 0.9 fold
- KD mutant/KD wild type [31]: 1.1 fold
- KD mutant/KD wild type [32]: 0.8 fold
- KD mutant/KD wild type [33]: 1 fold
